Data from paper PMC11307329.

Test system: T1, XisF4 (native excisionase) (Pseudomonas aeruginosa PAO1), ORF:74e9b1d3
T1 sequence: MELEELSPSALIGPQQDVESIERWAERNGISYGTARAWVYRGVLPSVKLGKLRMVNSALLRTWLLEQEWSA
Assay: EMSA

Sequence | binding
AGCTTTCATGAATCTCTCCGTTGATTATGTATAGGCCTAACGCCTGAACCTCAACAAGCACTTACCATGCCAAATATCAAACCGCGCCACGATCAAGGAAACTGGGTTCCTTTCTCGATGAGAGTCAAACTTAAAACGGACAGGATGTGACATTTTTTGACAGCTGGATTTCCTCGATTTGGCAGCCCCTGTTATCTGCGTTATAAGGCACCTCAATAGCCCTTCTGCGATTCCTTCCCCATG (double strand) [pilA promoter] | binds
GCTCATTCCGTCACTATTCGTGGCATTAGCCATACGCAGCTAGAGAAATAATTACCCTGGAGAAATTATTTCCCCAAAGCCACGTCAGGGCAACTATTTCCCCGGAATAAATTTCTATATGAGCACGTCAGCCGATAGAGCAAGACTATTAATCAAGAAAATCGGCCCCAAAAAGGTCAGCCTTCACGGGGGCGATTACGAGAGATGGAAAAGCGTCAGCAAAGGCGCGATTCGCGTGAGCACGGAAGAAATCGACGTCCTAGTAAAAATTTTCCCTAATTACGCATTATGGATTGCAAG (double strand) [xisF4 promoter] | binds
CGCGCAGACTGTATCGAAGTATTTCCGACGCCTGGCGTTCTGTGATCGATTCGGCTCGGTTGGAGTGCGCTGCCGCACGCTTTACAGCCGGACGGAGCGGGGCACCGGATCTACTGCAAAAGCTGATAGTTGTCTTCCCGGGTGACGGCGTTGCACGGTCCTGCGGCGTGCAACCCGGCCTGGGCGAAATACCGGCGGAGCGGACCAGGCTATCCCGTCGGAGGCGATGTCGCCGGGCTGCTGGCTTTCAAGGTTTCCCTTCGATGACCAGGAGCTACCCATG (double strand) [lasA promoter] | binds
CGGTCGCCTTGTTCATGAGAAAAGCCTTTTAAAACAGTGAGTTGCGCAATAATTTCAGCCGTACCTCTTTCGAGGTAGGGGCGCGCATCTAGGCACGGAACGGCCGGTATTTCATTGATTCCTATCAAATTTGCATAGGAACACCTTCCCTAGGCTCTCGCTGAACGCTGTCCGTGCAGAGAGTTTAGCC (double strand) [narL promoter] | binds
